Assay results published in publication PMC7801659, “Shared and divergent phase separation and aggregation properties of brain-expressed ubiquilins” (Scientific Reports, 2021).

B1: UBQLN1^438–589 (domain or fragment, human)
chain: WLPTFLQQMQNPDTLSAMSNPRAMQALLQIQQGLQTLATEAPGLIPGFTPGLGALGSTGGSSGTNGSNATPSENTSPTAGTTEPGHQQFIQQMLQALAGVNPQLQNPEVRFQQQLEQLSAMGFLNREANLQALIATGGDINAAIERLLGSQPS
notes: one tryptophan added at the N-terminus with the 6xHis tag (His6-W-); also called C-terminal UBQLN1 construct; source: E. coli Rosetta (DE3), purified (Ni-NTA, dialysis); not shown: His6, N-terminal, kept
B2: UBQLN4^444–601 (domain or fragment, human)
chain: WLPVFLQQMQNPESLSILTNPRAMQALLQIQQGLQTLQTEAPGLVPSLGSFGISRTPAPSAGSNAGSTPEAPTSSPATPATSSPTGASSAQQQLMQQMIQLLAGSGNSQVQTPEVRFQQQLEQLNSMGFINREANLQALIATGGDINAAIERLLGSQLS
notes: one tryptophan added at the N-terminus with the 6xHis tag (His6-W-); also called C-terminal UBQLN4 construct; source: E. coli Rosetta (DE3), purified (Ni-NTA, dialysis); not shown: His6, N-terminal, kept
B3: UBA^581–624 (domain or fragment, human)
chain: WRFQQQLEQLNAMGFLNREANLQALIATGGDINAAIERLLGSQPS
notes: one tryptophan added at the N-terminus with the 6xHis tag (His6-W-); ubiquilin-2 (UBQLN2), UBA domain, residues 581-624; The methods on expression and purification name only the three longer constructs; also called His6-W-UBQLN2^581–624(UBA); isolated UBA domain from UBQLN2; source: recombinant, plasmid for bacterial expression (pET3a)
B4: UBQLN2^430–624 (domain or fragment, human)
chain: WLPAFLQQMQNPDTLSAMSNPRAMQALMQIQQGLQTLATEAPGLIPSFTPGVGVGVLGTAIGPVGPVTPIGPIGPIVPFTPIGPIGPIGPTGPAAPPGSTGSGGPTGPTVSSAAPSETTSPTSESGPNQQFIQQMVQALAGANAPQLPNPEVRFQQQLEQLNAMGFLNREANLQALIATGGDINAAIERLLGSQPS
notes: one tryptophan added at the N-terminus with the 6xHis tag (His6-W-); ubiquilin-2 (UBQLN2, PLIC-2), residues 430-624, from the fourth STI1 motif to the end of the protein, includes the PXX domain and the UBA domain; Plasmid pET3a-His6-W-UBQLN2^430–624 bought from Genscript; also called His6-W-UBQLN2^430–624; C-terminal UBQLN2 construct; source: E. coli Rosetta (DE3), purified (Ni-NTA, flow-through …)

Biological target: the molecule itself
Test: ThioflavinT aggregation assay + transmission electron microscopy; 10 µM protein alone, 10 µM ThT, 0.1 M NaCl, 1 mM sodium azide, 20 mM Na phosphate pH 7.5, 37 °C, shaking at 200 rpm with Teflon beads; samples taken for negative-stain TEM at the end of the ThT assay; self-association into aggregates or fibrils

Binding result, binds:
B1, B2, B3, B4
